Where no end group is shown, it is not given here. [ ]: non-standard residue; d: D form. 2Abz = Nc1ccccc1C(=O)O

The assay deals with tcFGE_(W228F), inactive variant of formylglycine generating enzyme from Thermomonospora curvata (Thermomonospora curvata) (UniProt D1A7C3). The assay can be described thus: ITC. A general note: In ITC the heat of successive injections is recorded.
UniProt D1A7C3, sequence (D1A7C3 20-303 W228F): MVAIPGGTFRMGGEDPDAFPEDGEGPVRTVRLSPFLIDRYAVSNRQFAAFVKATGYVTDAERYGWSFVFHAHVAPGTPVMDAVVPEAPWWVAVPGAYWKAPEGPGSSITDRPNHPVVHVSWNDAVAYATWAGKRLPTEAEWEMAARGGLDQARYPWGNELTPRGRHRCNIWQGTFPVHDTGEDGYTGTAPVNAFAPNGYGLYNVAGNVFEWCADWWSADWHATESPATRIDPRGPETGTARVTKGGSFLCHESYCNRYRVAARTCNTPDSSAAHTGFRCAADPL

B1: FGE-27: Abz-… (peptide)
peptide: [2Abz]ATTPLCGPSRASILSGR
By Kd is commonly meant the concentration at which binding is half-saturated. In turn, B1 returned a Kd of 40 nM.

The record behind these values is article PMC6676471.
